We go through one molecule from paper PMC4159138, “Fission Yeast Pxd1 Promotes Proper DNA Repair by Activating Rad16^XPF and Inhibiting Dna2” (PLoS Biology, 2014).

The target in one data set is Dna2;Cdc24-YFH (Schizosaccharomyces …, UniProt Q9URU2;O75004 1-1397;1-501, |). Put plainly: EMSA; 1 mM EDTA, no divalent cations; 100-300 ng Dna2-Cdc24; 50 mM Tris-HCl pH 7.5, 1 mM EDTA, 1 mM DTT, 0.1 mg/ml BSA, 50 mM NaCl, 5% glycerol, 15 fmol DNA in 10 µl, room temperature 30 min; 5% PAGE in 1x TBE. Conditions: protein: native;native; tags: none stated (co-expressed with Cdc24-YFH);YFP-FLAG-His6; copies: 1;1; label: 5' 32P on oligo461; 18 bp duplex with 5' overhang 31 nt on oligo461. (In EMSA bound probe runs differently from free probe, usually more slowly.)

In the next data set the target is Dna2;Cdc24-YFH;RPA (Schizosaccharomyces …, UniProt Q9URU2;O75004;Q92372;Q92373;Q92374 1-1397;1-501;1-609;1-279;1-104, ||). Put plainly: EMSA; 1 mM EDTA; supershifted higher-order complex, no Pxd1; 50 mM Tris-HCl pH 7.5, 1 mM EDTA, 1 mM DTT, 0.1 mg/ml BSA, 50 mM NaCl, 5% glycerol, 15 fmol DNA in 10 µl, room temperature 30 min; 5% PAGE in 1x TBE. As to conditions: protein: native;native;recombinant; tags: none stated (co-expressed with Cdc24-YFH);YFP-FLAG-His6;6xHis-GST on Rpa1 in plasmid pDB2129; copies: 1;1;1;1;1; label: 5' 32P on oligo461; 18 bp duplex with 5' overhang 31 nt on oligo461.

Dna2;Cdc24-YFH, sequence (Q9URU2 whole entry, chain 1 of 2): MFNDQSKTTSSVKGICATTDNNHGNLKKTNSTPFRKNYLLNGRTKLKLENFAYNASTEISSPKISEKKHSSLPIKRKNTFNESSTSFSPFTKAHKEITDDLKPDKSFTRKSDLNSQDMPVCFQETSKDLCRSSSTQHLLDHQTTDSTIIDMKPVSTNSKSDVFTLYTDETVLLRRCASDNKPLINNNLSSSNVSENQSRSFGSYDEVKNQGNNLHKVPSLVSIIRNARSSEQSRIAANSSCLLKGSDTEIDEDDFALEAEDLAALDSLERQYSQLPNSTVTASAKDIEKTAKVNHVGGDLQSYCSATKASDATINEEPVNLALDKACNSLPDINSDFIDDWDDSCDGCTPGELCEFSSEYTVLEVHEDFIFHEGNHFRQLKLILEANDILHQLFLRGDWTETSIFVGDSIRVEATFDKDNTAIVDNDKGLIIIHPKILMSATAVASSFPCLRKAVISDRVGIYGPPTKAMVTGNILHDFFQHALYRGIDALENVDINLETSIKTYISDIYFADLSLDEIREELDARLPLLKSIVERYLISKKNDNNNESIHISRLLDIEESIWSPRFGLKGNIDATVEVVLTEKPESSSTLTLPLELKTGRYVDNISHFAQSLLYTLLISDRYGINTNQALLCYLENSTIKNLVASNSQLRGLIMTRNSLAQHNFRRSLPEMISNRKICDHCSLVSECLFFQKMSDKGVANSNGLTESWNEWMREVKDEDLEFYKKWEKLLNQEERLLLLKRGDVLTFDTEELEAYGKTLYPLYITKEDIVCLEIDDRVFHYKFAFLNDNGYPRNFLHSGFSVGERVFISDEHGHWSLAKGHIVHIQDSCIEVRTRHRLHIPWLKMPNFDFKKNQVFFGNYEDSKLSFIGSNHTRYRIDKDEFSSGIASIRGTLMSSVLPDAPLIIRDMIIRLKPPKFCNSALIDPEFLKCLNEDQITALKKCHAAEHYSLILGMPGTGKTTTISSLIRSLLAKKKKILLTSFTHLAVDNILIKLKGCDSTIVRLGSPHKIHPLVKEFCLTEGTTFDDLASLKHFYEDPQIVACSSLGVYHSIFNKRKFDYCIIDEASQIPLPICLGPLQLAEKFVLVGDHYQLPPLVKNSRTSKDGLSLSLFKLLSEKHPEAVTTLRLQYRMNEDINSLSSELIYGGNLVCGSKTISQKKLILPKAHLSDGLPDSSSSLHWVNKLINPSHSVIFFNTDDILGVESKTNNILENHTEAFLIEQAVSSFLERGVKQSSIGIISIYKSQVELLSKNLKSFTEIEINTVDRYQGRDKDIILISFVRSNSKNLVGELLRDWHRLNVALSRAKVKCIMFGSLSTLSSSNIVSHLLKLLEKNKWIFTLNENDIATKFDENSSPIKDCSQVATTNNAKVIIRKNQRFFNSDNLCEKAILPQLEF
Dna2;Cdc24-YFH, sequence (O75004 whole entry, chain 2 of 2): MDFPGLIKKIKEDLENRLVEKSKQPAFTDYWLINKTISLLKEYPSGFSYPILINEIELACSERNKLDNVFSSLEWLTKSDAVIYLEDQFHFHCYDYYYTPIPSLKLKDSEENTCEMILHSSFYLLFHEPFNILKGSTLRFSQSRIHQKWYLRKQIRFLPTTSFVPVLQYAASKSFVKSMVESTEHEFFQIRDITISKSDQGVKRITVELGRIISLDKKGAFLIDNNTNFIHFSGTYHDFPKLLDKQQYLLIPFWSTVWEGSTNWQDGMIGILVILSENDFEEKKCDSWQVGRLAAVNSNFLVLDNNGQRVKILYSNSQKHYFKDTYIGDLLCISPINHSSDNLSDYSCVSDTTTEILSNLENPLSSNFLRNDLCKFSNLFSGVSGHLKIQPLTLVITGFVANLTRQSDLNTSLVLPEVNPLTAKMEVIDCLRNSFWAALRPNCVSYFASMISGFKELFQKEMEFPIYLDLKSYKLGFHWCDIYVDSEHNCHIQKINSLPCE

B1: 5' overhang DNA (oligo461/oligo463) (dsDNA)
DNA 1: CACGCTACCGAATTCTGACTTGCTAGGACATCTTTGCCCACGTTGACCC
DNA 2: GGGTCAACGTGGGCAAAG
For the molecule B1, the binding result with Dna2;Cdc24-YFH and with Dna2;Cdc24-YFH;RPA was “binds” in each case.
